Consider ten substances from publication PMC9408933, “Discovery of the Key Mutation Site Influencing the Thermostability of Thermomyces lanuginosus Lipase by Rosetta Design Programs” (International Journal of Molecular Sciences, 2022).

One may read the Km as the concentration of substrate that gives half-maximal velocity. The term Vmax denotes the rate approached at saturating substrate. As a reminder, the kcat is the number of substrate molecules converted per active site and unit of time at saturation. A word on the kcat/Km: it is the turnover number divided by the Michaelis constant.

The data set relates to T1, CCCCCCCCCCCCCCCC(=O)Oc1ccc([N+](=O)[O-])cc1.
T1 construct: N-terminal His-tag, secreted from Pichia pastoris GS115 (pPIC9K), Ni-NTA purified
Briefly: p-nitrophenol release, Michaelis-Menten fit. It is filed as biochemical, Thermomyces lanuginosus. Conditions: 37 °C, pH 9.0, 100 mM Tris-HCl, pNPP 0.08-10.00 mM, apparent Km. The source says:
p-nitrophenol release, Michaelis-Menten fit on TLL (Thermomyces lanuginosus lipase)
“TLL (Thermomyces lanuginosus lipase) (Thermomyces lanuginosus; R231A)”: the Km amounted to 230 ± 30 µM, the Vmax is 384 µmol/min/mg, the kcat was found to be 1220 ± 43 s⁻¹ and the kcat/Km came to 5.31e+06 ± 187000 M⁻¹ s⁻¹.
For “TLL (Thermomyces lanuginosus lipase) (Thermomyces lanuginosus; R231E)” the same measures were 140 ± 20 µM, 301 µmol/min/mg, 1230 ± 27.6 s⁻¹ and 8.79e+06 ± 197000 M⁻¹ s⁻¹.
With “TLL (Thermomyces lanuginosus lipase) (Thermomyces lanuginosus; R231H)”, the Km stood at 180 ± 20 µM, the maximum rate (Vmax) came out at 330 µmol/min/mg, the kcat stood at 790 ± 22.7 s⁻¹ and the kcat/Km worked out at 4.39e+06 ± 126000 M⁻¹ s⁻¹.
With “TLL (Thermomyces lanuginosus lipase) (Thermomyces lanuginosus; R231I)”, the Km stood at 180 ± 20 µM, the Vmax turned out to be 303 µmol/min/mg, the kcat is 767 ± 22.8 s⁻¹ and the kcat/Km came to 4.26e+06 ± 127000 M⁻¹ s⁻¹.
Turning to “TLL (Thermomyces lanuginosus lipase) (Thermomyces lanuginosus; R231K)”, the Km worked out at 170 ± 20 µM, the maximum rate (Vmax) was 345 µmol/min/mg, the kcat worked out at 1100 ± 14 s⁻¹ and the kcat/Km was determined as 6.5e+06 ± 82500 M⁻¹ s⁻¹.
Take “TLL (Thermomyces lanuginosus lipase) (Thermomyces lanuginosus; R231M)”: the Km worked out at 190 ± 30 µM, the Vmax worked out at 319 µmol/min/mg, the kcat came to 765 ± 17.6 s⁻¹ and the kcat/Km was found to be 4.02e+06 ± 92400 M⁻¹ s⁻¹.
The corresponding values for “TLL (Thermomyces lanuginosus lipase) (Thermomyces lanuginosus; R231P)” are 160 ± 20 µM, 339 µmol/min/mg, 1387 ± 12.8 s⁻¹ and 8.669e+06 ± 80300 M⁻¹ s⁻¹.
For “TLL (Thermomyces lanuginosus lipase) (Thermomyces lanuginosus; R231Q)”, the Km amounted to 230 ± 30 µM, the maximum rate (Vmax) was found to be 354 µmol/min/mg, the kcat amounted to 788 ± 7.98 s⁻¹ and the specificity constant (kcat/Km) stood at 3.42e+06 ± 34700 M⁻¹ s⁻¹.
Regarding “TLL (Thermomyces lanuginosus lipase) (Thermomyces lanuginosus; R231T)”, the Michaelis-Menten constant (Km) came to 190 ± 30 µM, the maximal velocity (Vmax) stood at 344 µmol/min/mg, the kcat was found to be 1090 ± 27.6 s⁻¹ and the kcat/Km is 5.75e+06 ± 146000 M⁻¹ s⁻¹.
On to “TLL (Thermomyces lanuginosus lipase) (Thermomyces lanuginosus; R231V)”, for which the Km was 140 ± 20 µM, the Vmax turned out to be 260 µmol/min/mg, the catalytic constant (kcat) stood at 713 ± 8.11 s⁻¹ and the kcat/Km was 5.09e+06 ± 57900 M⁻¹ s⁻¹.
